{"source": "paper PMC10853764", "molecules": {"B1": {"name": "driD promoter 21 bp site (FP) (dsDNA)", "DNA 1": "ATACGACAGTTACTGTCGTAT", "DNA 2": "ATACGACAGTAACTGTCGTAT"}, "B2": {"name": "C4/G12 to T/A (dsDNA)", "DNA 1": "ATACGATAGTTACTATCGTAT", "DNA 2": "ATACGATAGTAACTATCGTAT"}, "B3": {"name": "G2/C14 to A/T (dsDNA)", "DNA 1": "ATACAATAGTTACTATTGTAT", "DNA 2": "ATACAATAGTAACTATTGTAT"}, "B4": {"name": "position 3/13 mutant (T3/A13 to C/G in text) (dsDNA)", "DNA 1": "ATACGGCAGTTACTGCCGTAT", "DNA 2": "ATACGGCAGTAACTGCCGTAT"}, "B5": {"name": "C1/G15 to T/A (dsDNA)", "DNA 1": "ATATGACAGTTACTGTCATAT", "DNA 2": "ATATGACAGTAACTGTCATAT"}, "B6": {"name": "GC-rich center mutant (dsDNA)", "DNA 1": "ATACGACGGCCGCCGTCGTAT", "DNA 2": "ATACGACGGCGGCCGTCGTAT"}}, "key": {"[1]": {"molecular_target": "DriD(V73P-F74P) with His-tag (Caulobacter crescentus)", "test": "SEC"}, "[2]": {"molecular_target": "DriD(L10E) with His-tag (Caulobacter crescentus)", "test": "SEC"}, "[3]": {"molecular_target": "Caulobacter crescentus full length DriD with His-tag (Caulobacter crescentus)", "test": "SEC"}, "[4]": {"molecular_target": "Caulobacter crescentus full length DriD, tag-free (Caulobacter crescentus)", "test": "mass photometry"}, "[5]": {"molecular_target": "Caulobacter crescentus full length DriD, tag-free (Caulobacter crescentus)", "test": "cross-linking"}, "[6]": {"molecular_target": "T1, DriD(E40K) (Caulobacter crescentus, UniProt Q9A999 5-331, E44K)", "T1 sequence": "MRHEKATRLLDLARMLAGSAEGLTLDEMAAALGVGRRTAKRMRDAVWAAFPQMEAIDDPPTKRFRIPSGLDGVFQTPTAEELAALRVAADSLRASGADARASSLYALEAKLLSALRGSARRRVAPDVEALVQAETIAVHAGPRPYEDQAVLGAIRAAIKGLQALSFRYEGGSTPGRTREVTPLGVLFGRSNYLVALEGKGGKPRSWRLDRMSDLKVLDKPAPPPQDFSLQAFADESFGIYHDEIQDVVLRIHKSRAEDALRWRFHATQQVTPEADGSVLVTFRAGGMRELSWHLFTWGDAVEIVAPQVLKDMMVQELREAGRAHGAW", "test": "fluorescence polarization"}, "[7]": {"molecular_target": "T2, DriD(E40A) (Caulobacter crescentus, UniProt Q9A999 5-331, E44A)", "T2 sequence": "T1 sequence with K40A", "test": "fluorescence polarization"}, "[8]": {"molecular_target": "T3, DriD(L10E) (Caulobacter crescentus, UniProt Q9A999 5-331, L14E)", "T3 sequence": "T1 sequence with L10E, K40E", "test": "fluorescence polarization"}, "[9]": {"molecular_target": "T4, DriD(V73P-F74P) (Caulobacter crescentus, UniProt Q9A999 5-331, V77P;F78P)", "T4 sequence": "T1 sequence with K40E, V73P, F74P", "test": "fluorescence polarization"}, "[10]": {"molecular_target": "T5, DriD(T61A-K62A) (Caulobacter crescentus, UniProt Q9A999 5-331, T65A;K66A)", "T5 sequence": "T1 sequence with K40E, T61A, K62A", "test": "fluorescence polarization"}, "[11]": {"molecular_target": "T6, DriD WT (Caulobacter crescentus, UniProt Q9A999 5-331)", "T6 sequence": "T1 sequence with K40E", "test": "fluorescence polarization"}, "[12]": {"molecular_target": "T6, DriD WT", "test": "X-ray crystallography 2.74 A"}, "[13]": {"molecular_target": "T6, DriD WT", "test": "fluorescence polarization", "remark": "listed apart in the source"}}, "note": "Substitutions are numbered along the chain they refer to."}
{"molecule": "DriD(V73P-F74P) with His-tag (natural protein)", "values": [{"measurement": "stoichiometry N", "setting": "[1]", "result": 2}]}
{"molecule": "DriD(L10E) with His-tag (natural protein)", "values": [{"measurement": "stoichiometry N", "setting": "[2]", "result": 2}]}
{"molecule": "Caulobacter crescentus full length DriD with His-tag (natural protein)", "values": [{"measurement": "stoichiometry N", "setting": "[3]", "result": 2}]}
{"molecule": "Caulobacter crescentus full length DriD, tag-free (natural protein)", "values": [{"measurement": "stoichiometry N", "setting": "[4]", "result": 2}, {"measurement": "stoichiometry N", "setting": "[5]", "result": 2}]}
{"molecule": "B1", "values": [{"measurement": "binding signal", "setting": "[6]", "result": "83 fold reduction vs WT protein"}, {"measurement": "binding signal", "setting": "[7]", "result": "7 fold reduction vs WT protein"}, {"measurement": "Kd", "setting": "[8]", "result": "120 ± 23.6", "unit": "nM"}, {"measurement": "Kd", "setting": "[9]", "result": "133 ± 10.4", "unit": "nM"}, {"measurement": "Kd", "setting": "[10]", "result": "1200 ± 200", "unit": "nM"}, {"measurement": "Kd", "setting": "[11]", "result": "1.6 ± 0.04", "unit": "nM"}]}
{"molecule": "B2", "values": [{"measurement": "Kd", "setting": "[11]", "result": "962 ± 182", "unit": "nM"}]}
{"molecule": "B3", "values": [{"measurement": "Kd", "setting": "[11]", "result": "512 ± 227", "unit": "nM"}]}
{"molecule": "B4", "values": [{"measurement": "Kd", "setting": "[11]", "result": "7.1 ± 0.9", "unit": "nM"}]}
{"molecule": "B5", "values": [{"measurement": "Kd", "setting": "[11]", "result": "6.9 ± 1.7", "unit": "nM"}]}
{"molecule": "TGTCTAT (ssDNA)", "note": "[7mer ssDNA effector]", "values": [{"measurement": "binding result", "setting": "[12]", "result": "binds"}]}
{"molecule": "B6", "values": [{"measurement": "binding signal", "setting": "[13]", "result": 20, "unit": "fold reduction vs WT site"}]}
